Broadly, the Kd is a measure of binding affinity in units of concentration. A high value points to lower affinity. Broadly, the EC50 (read off the curve) is the concentration at which the effect is half-maximal. Read a high EC50 (read off the curve) as a less potent agent.

The target of experiment [1] is T1, DENV2 NS1 (dengue virus serotype 2 non-structural protein 1), wild type (Dengue virus 2, UniProt P29990 776-1127).
T1 sequence: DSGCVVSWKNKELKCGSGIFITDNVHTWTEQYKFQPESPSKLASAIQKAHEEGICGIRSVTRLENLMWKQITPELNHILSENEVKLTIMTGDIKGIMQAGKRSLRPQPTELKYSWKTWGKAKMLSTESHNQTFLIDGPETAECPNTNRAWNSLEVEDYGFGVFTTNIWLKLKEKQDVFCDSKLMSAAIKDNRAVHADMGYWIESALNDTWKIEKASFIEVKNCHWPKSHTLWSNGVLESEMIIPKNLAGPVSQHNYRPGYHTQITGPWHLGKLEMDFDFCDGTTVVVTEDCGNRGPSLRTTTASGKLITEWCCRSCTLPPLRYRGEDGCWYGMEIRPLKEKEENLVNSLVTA
Description: BLI, NS1 on anti-His tips; full-length 2B7, not Fab. (In general: In BLI a coated tip is dipped into the sample, and binding shifts an interference pattern.)

The target in experiment [2] is T1, DENV2 NS1 (dengue virus serotype 2 …). Description: direct ELISA, 2B7 titrated on purified DENV2 NS1, OD450. Background: In an ELISA, binding on a coated surface is turned into a signal by an enzyme label.
Experiment [3] has the same target. Description: BLI, NS1 on anti-His tips; Fab, not full-length IgG.
Experiment [4] shares this target. Description: BLI, NS1 on anti-His tips, n=2 preparations.

B1: anti-DENV NS1 IgG2b mouse monoclonal antibody (mAb) 2B7 (antibody, V domains shown)
VH: EVQLQQSGPELVKPGASVKMSCKASGCTLTNCFMHWMKQKPGQDLEWIGYINPYNDMTKYSENFKGKATLTSDKSSSTAFMELSSLTSEDSAVYYCARGYLLRTGCFDYWGQGTTLTVSS
VL: NIVLTQSPASLAVSLGQRATISCRASESVDSYGYSFMHWYQQKPGQPPKVLIYLASNLESGVPARFSGSGSRTDFTLTIDPVEADDAATYYCQQNNENPLTFGAGTKLELKR
In experiment [1], B1 yielded a Kd of 4.8 nM. Moreover, the “EC50 (read off the curve)” value in experiment [2] is ~5 ng/mL.

B2: 2B7 Fab (Fab, V domains shown)
VH: B1 VH
VL: NIVLTQSPASLAVSLGQRATISCRASESVDSYGYSFMHWYQQKPGQPPKVLIYLASNLESGVPARFSGSGSRTDFTLTIDPVEADDAATYYCQQNNENPLTFGAGTKLELK
On to B2, for which the Kd in experiment [3] was 8.3 nM; in experiment [4] it was 5 to 8 nM.

These data come from patent US20240002479A1 (REGENTS OF THE UNIVERSITY OF MICHIGAN, published 2024).
